# Legend:
# [1] = target: FITC conjugated ATF; assay: high-content fluorescence imaging of FITC-ATF on 293T cells (FITC/mRuby3 intensity ratio); conditions: FITC-ATF for 1 h; uPAR-mRuby3 expressing 293T cells; parent: est. 0.41; read off a plot
# [2] = target: dimeric suPAR (human) (UniProt Q03405); assay: SEC; suPAR dimer mixed with excess ATF, 30 min at room temperature; complex purified on Superdex 200 10/300 (20 mM Tris pH 7.4, 150 mM KCl) and quantified by SDS-PAGE
# [3] = target: dimeric suPAR (human) (UniProt Q03405); assay: SPR; Biacore T200; suPAR monomer or dimer captured on anti-uPAR antibody immobilised on a CM5 chip; ATF (0.14-33.3 nM) or scuPA (0.54-44.4 nM) flowed over; 10 mM HEPES, 150 mM NaCl, 3 mM EDTA, 0.005% P-20, pH 7.4, 20 °C; 1:1 Langmuir fit
# Sequence of UniProt Q03405 (Q03405 23-299): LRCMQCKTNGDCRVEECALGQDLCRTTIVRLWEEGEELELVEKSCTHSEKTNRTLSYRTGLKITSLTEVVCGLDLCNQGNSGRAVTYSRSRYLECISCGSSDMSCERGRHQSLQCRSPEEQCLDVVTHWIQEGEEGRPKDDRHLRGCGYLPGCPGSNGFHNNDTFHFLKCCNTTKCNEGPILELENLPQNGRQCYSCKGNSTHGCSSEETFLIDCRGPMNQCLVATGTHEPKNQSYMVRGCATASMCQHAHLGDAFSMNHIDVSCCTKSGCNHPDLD
response [1],stoichiometry N (ATF molecules per uPAR dimer) [2],Kd [3] [nM],Substance
0.27,–,–,uPAR^WT fused with mRuby3 (suPAR-mRuby3-GPI) (from UniProt Q03405) H47C; N259C
–,2,0.672,amino terminal fragment of uPA (ATF) (domain or fragment)
0.43,–,–,uPAR^WT fused with mRuby3 (suPAR-mRuby3-GPI) (from UniProt Q03405) E49P

# — PMC8964761
